Reference: PMC10998612 (Proceedings of the National Academy of Sciences of the …, 2024)

Molecular target: T1, eIF2γ (γ subunit of eIF2, as in the eIF2αγ dimer) (human, UniProt P41091 1-472)
T1 construct: eIF2 gamma subunit (eIF2γ); The γ chain of m6, written alone for the pairs that touch in the crystal structure; also called human eIF2γ; source: E. coli, co-expressed with eIF2α and CDC123 from a multicistronic plasmid, purified as eIF2αγ
Assay: crystal structure; 7.5 mg/mL eIF2αγ combined with PPP1R15A_R3^420-452 at a molar ratio of 1:8 with 0.5 mM GMPPNP and 5 mM MgCl2; sitting drop, 20 °C; 11 to 12% PEG 6000, 0.1 M Tris-HCl pH 8.5; 3.35 Å
Details: both partners purified

T1 sequence (P41091 whole entry): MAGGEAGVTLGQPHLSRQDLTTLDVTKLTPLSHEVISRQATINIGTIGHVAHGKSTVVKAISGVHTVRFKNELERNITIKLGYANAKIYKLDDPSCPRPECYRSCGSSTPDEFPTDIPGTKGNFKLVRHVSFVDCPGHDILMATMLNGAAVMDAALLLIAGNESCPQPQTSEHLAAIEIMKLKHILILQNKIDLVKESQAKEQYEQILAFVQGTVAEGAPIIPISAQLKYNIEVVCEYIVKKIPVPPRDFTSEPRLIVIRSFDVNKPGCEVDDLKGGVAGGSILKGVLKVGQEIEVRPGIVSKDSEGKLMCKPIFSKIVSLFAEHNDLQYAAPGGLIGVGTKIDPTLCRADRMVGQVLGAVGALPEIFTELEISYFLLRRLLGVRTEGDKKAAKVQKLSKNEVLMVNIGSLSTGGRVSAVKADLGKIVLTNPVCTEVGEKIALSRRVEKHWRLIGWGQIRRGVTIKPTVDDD

- binding result: binds
B1: PPP1R15A^420-452 (R3) peptide (peptide)
peptide: not shown
notes: residue numbers based on UniProt O75807; Only residues 426-434 were built in the structure
